Experimental data: paper PMC10696041 (2023)

T1: procollagen C-proteinase enhancer-2 with N-terminal 6His-tag (human, UniProt Q9UKZ9 24-415)
T1 chain: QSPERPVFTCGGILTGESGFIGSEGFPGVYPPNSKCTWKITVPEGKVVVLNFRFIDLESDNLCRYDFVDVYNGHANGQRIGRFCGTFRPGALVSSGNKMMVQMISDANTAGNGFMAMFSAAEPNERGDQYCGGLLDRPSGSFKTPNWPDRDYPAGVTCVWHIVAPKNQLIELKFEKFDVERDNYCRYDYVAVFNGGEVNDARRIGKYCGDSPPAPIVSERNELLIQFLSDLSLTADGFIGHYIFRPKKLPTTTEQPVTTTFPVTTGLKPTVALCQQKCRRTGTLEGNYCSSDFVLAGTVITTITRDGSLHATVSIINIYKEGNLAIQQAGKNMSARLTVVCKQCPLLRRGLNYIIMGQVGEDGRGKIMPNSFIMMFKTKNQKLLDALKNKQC

T2: bone morphogenetic protein-1 (human, UniProt P13497-2 121-730)
T2 chain: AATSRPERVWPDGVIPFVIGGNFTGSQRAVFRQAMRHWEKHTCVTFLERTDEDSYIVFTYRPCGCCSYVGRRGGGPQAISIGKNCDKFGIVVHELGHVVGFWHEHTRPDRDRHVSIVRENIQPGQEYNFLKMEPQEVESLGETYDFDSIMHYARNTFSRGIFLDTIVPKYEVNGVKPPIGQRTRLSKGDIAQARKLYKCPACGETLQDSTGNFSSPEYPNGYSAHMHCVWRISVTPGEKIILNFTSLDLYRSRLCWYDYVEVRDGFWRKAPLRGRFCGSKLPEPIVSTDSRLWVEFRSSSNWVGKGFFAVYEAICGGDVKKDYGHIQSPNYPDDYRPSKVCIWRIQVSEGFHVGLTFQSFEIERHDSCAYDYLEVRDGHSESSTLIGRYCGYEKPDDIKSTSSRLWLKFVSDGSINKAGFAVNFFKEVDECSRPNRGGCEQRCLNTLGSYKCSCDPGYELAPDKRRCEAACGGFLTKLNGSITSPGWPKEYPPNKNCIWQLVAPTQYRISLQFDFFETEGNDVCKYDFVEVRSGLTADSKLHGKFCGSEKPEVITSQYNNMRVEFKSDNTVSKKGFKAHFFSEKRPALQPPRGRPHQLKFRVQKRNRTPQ


Experiments:
[1] = target: T1, procollagen C-proteinase enhancer-2 …; experiment: SPR; steady-state fit
[2] = target: T1, procollagen C-proteinase enhancer-2 …; experiment: SPR; heterogeneous ligand model, kd1
[3] = target: T1, procollagen C-proteinase enhancer-2 …; experiment: SPR; heterogeneous ligand model, KD1 (Rmax1 42%)
[4] = target: T1, procollagen C-proteinase enhancer-2 …; experiment: SPR; heterogeneous ligand model, second site kd2
[5] = target: T1, procollagen C-proteinase enhancer-2 …; experiment: SPR; heterogeneous ligand model, second site KD2 (Rmax2 58%)
[6] = target: T2, bone morphogenetic protein-1; experiment: SPR; steady-state fit
[7] = target: T2, bone morphogenetic protein-1; experiment: SPR; heterogeneous ligand model, kd1
[8] = target: T2, bone morphogenetic protein-1; experiment: SPR; heterogeneous ligand model, KD1 (Rmax1 14%)
[9] = target: T2, bone morphogenetic protein-1; experiment: SPR; heterogeneous ligand model, second site kd2
[10] = target: T2, bone morphogenetic protein-1; experiment: SPR; heterogeneous ligand model, second site KD2 (Rmax2 86%)

| Kd [1] | koff [2] | Kd [3] | koff [4] | Kd [5] | Kd [6] | koff [7] | Kd [8] | koff [9] | Kd [10] | Binder |
| --- | --- | --- | --- | --- | --- | --- | --- | --- | --- | --- |
| 24 nM | 0.0024 s⁻¹ | 1.84 nM | 0.03 s⁻¹ | 66 nM | – | – | – | – | – | BMP-1[catCUB1CUB2] (domain or fragment) AATSRPERVWPDGVIPFVIGGNFTGSQRAVFRQAMRHWEKHTCVTFLERTDEDSYIVFTYRPCGCCSYVGRRGGGPQAISIGKNCDKFGIVVHELGHVVGFWHEHTRPDRDRHVSIVRENIQPGQEYNFLKMEPQEVESLGETYDFDSIMHYARNTFSRGIFLDTIVPKYEVNGVKPPIGQRTRLSKGDIAQARKLYKCPACGETLQDSTGNFSSPEYPNGYSAHMHCVWRISVTPGEKIILNFTSLDLYRSRLCWYDYVEVRDGFWRKAPLRGRFCGSKLPEPIVSTDSRLWVEFRSSSNWVGKGFFAVYEAICGGDVKKDYGHIQSPNYPDDYRPSKVCIWRIQVSEGFHVGLTFQSFEIERHDSCAYDYLEVRDGHSESSTLIGRYCGYEKPDDIKSTSSRLWLKFVSDGSINKAGFAVNFFK |
| – | – | – | – | – | 52 nM | 0.005 s⁻¹ | 6.29 nM | 0.198 s⁻¹ | 26.6 nM | CUB2NTR region of PCPE-2 (domain or fragment) CGGLLDRPSGSFKTPNWPDRDYPAGVTCVWHIVAPKNQLIELKFEKFDVERDNYCRYDYVAVFNGGEVNDARRIGKYCGDSPPAPIVSERNELLIQFLSDLSLTADGFIGHYIFRPKKLPTTTEQPVTTTFPVTTGLKPTVALCQQKCRRTGTLEGNYCSSDFVLAGTVITTITRDGSLHATVSIINIYKEGNLAIQQAGKNMSARLTVVCKQCPLLRRGLNYIIMGQVGEDGRGKIMPNSFIMMFKTKNQKLLDALKNKQC |
